IntAct's records for PubMed 19103756

B1: Serine/threonine-protein kinase VRK1 (Homo sapiens), Q99986 (parent)
chain: MPRVKAAQAGRQSSAKRHLAEQFAVGEIITDMAKKEWKVGLPIGQGGFGCIYLADMNSSESVGSDAPCVVKVEPSDNGPLFTELKFYQRAAKPEQIQKWIRTRKLKYLGVPKYWGSGLHDKNGKSYRFMIMDRFGSDLQKIYEANAKRFSRKTVLQLSLRILDILEYIHEHEYVHGDIKASNLLLNYKNPDQVYLVDYGLAYRYCPEGVHKEYKEDPKRCHDGTIEFTSIDAHNGVAPSRRGDLEILGYCMIQWLTGHLPWEDNLKDPKYVRDSKIRYRENIASLMDKCFPEKNKPGEIAKYMETVKLLDYTEKPLYENLRDILLQGLKAIGSKDDGKLDLSVVENGGLKAKTITKKRKKEIEESKEPGVEDTEWSNTQTEEAIQTRSRTRKRVQK

Variants of: B1
Conditions: with plk3_human PLK3, Q9H4B4
Sequence of plk3_human PLK3, Q9H4B4 (Q9H4B4 whole entry, looked up): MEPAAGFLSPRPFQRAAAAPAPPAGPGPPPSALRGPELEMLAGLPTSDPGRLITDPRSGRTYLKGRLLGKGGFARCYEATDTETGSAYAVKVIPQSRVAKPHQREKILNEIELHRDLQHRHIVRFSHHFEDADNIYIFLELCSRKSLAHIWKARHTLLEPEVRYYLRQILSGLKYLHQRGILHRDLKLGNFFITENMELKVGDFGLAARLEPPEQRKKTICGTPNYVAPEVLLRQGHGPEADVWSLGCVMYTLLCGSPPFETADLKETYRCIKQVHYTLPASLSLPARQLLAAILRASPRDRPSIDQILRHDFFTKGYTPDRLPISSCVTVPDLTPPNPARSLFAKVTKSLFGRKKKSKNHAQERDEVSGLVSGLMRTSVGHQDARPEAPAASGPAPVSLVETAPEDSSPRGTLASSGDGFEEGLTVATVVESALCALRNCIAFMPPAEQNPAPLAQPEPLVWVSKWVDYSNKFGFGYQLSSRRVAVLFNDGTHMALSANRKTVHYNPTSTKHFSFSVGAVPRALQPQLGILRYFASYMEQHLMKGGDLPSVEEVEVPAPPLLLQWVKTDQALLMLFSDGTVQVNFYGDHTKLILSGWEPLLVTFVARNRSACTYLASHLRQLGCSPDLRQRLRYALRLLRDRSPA
MPRVKAAQAGRQSSAKRHLAEQFAVGEIITDMAKKEWKVGLPIGQGGFGCIYLADMNSSESVGSDAPCVVKVEPSDNGPLFTELKFYQRAAKPEQIQKWIRTRKLKYLGVPKYWGSGLHDKNGKSYRFMIMDRFGSDLQKIYEANAKRFSRKTVLQLSLRILDILEYIHEHEYVHGDIKASNLLLNYKNPDQVYLVDYGLAYRYCPEGVHKEYKEDPKRCHDGTIEFTSIDAHNGVAPSRRGDLEILGYCMIQWLTGHLPWEDNLKDPKYVRDSKIRYRENIASLMDKCFPEKNKPGEIAKYMETVKLLDYTEKPLYENLRDILLQGLKAIGSKDDGKLDLAVVENGGLKAKTITKKRKKEIEESKEPGVEDTEWSNTQTEEAIQTRSRTRKRVQK [S342A] was tested, and the “effect of a mutation on the interaction” value was “disrupting interaction”.
